Assay results reported in patent US20200262877A1, “ION CHANNEL-BINDING PEPTIDES AND METHODS OF USE THEREOF” (priority 2017, published 2020).

Tests used:
5HT3a = target: T1, 5HT3a (Homo sapiens, UniProt P46098); test: Ion channel panel (IonWorks Barracuda): 5HT3a; format: cell-based
T1 construct: host or cells: HEK293 or CHO
T1 sequence (P46098 whole entry, looked up): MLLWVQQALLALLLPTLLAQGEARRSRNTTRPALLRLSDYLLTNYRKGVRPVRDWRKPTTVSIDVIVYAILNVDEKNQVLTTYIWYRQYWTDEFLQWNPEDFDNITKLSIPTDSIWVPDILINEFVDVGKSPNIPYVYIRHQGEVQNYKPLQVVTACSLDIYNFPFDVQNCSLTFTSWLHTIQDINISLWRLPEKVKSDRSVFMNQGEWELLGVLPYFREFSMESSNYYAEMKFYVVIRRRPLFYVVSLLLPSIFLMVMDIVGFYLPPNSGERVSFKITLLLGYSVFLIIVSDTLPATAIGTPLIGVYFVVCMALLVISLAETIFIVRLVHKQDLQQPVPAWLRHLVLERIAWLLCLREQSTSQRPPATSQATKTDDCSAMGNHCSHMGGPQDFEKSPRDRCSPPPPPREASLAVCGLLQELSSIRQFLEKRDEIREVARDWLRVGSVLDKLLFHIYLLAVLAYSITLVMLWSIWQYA
Procedure: (§1) This example describes a method for assaying ion channel activity in cells.
(§2) Peptides were screened in duplicate at final concentrations of 20 μM and 200 nM, as determined by amino acid analysis, and diluted into HEPES buffered physiological saline (HBPS). HEK293 or CHO cells from the American Type Culture Collection (ATCC) were transfected with the appropriate ion channel before use. HEK293 cells were grown in Dulbecco's Modified Eagle Medium/Nutrient Mixture F-12, and CHO cells were cultured in Ham's F-12 media. All cultures were supplemented with 10% fetal bovine serum, 100 U/ml penicillin G, 100 μg/ml streptomycin sulfate, and the appropriate selection antibiotics. Prior to use, cells were washed twice with Hank's Balanced Salt Solution, and treated with Accutase cell detachment solution (Sigma-Aldrich). Cells were then washed. Peptides and controls were incubated with cells for at least five minutes.
(§3) Percent inhibition was defined as: (1-(Ipeptide/Icontrol))×100%).
(§4) Percent values were calculated using the following formula: % activation=(IPeptide/Icontrol)×100%, where IPeptide is the current produced by co-application a peptide with agonist, and Icontrol refers to the current produced by stimulation in control. Control used for each ion channel is the reference compound matched to a particular channel, as illustrated in TABLE 10 below.

α3β4 = target: T2, α3β4 (Homo sapiens, UniProt P30926+P32297); test: Ion channel panel (IonWorks Barracuda): α3β4; format: cell-based; details: 100% = no change, <100% = inhibition
T2 construct: host or cells: HEK293 or CHO
Procedure: as §1, §2, §3, §4

α4β2 = target: T3, α4β2 (Homo sapiens, UniProt P17787+P43681); test: Ion channel panel (IonWorks Barracuda): α4β2; format: cell-based; details: 100% = no change, <100% = inhibition
T3 construct: host or cells: HEK293 or CHO
Procedure: as §1, §2, §3, §4

Cav2.1 = target: T4, Cav2.1 (Homo sapiens, UniProt O00555); test: cell-based; details: 100% = no change, <100% = inhibition
T4 construct: host or cells: HEK293 or CHO
Procedure: as §1, §2, §3, §4

Cav2.2 = target: T5, Cav2.2 (Homo sapiens, UniProt Q00975); test: cell-based; details: 100% = no change, <100% = inhibition
T5 construct: host or cells: HEK293 or CHO
Procedure: as §1, §2, §3, §4

Kv2.1 = target: T6, Kv2.1 (Homo sapiens, UniProt Q14721); test: cell-based; details: 100% = no change, <100% = inhibition
T6 construct: host or cells: HEK293 or CHO
Procedure: as §1, §2, §3, §4

GABA = test: Ion channel panel (IonWorks Barracuda): GABA; format: cell-based; details: 100% = no change, <100% = inhibition
Procedure: as §1, §2, §3, §4

Nav1.5 = Nav1.5 (Homo sapiens, UniProt Q14524); test: in vitro; details: 100% = no change; for Activity of Nav1.5 with peptide, expressed as a percentage of the reference compound: peptide at 0.2 μM; for Activity of Nav1.5 with peptide (percentage of the reference compound): peptide at 20 μM
Procedure: as §1, §2, §3, §4

hERG = hERG (Homo sapiens, UniProt Q12809); test: in vitro; details: 100% = no change, <100% = inhibition
Procedure: as §1, §2, §3, §4

Kir2.1 = target: T7, Kir2.1 (Homo sapiens, UniProt P63252); test: Ion channel panel (IonWorks Barracuda): Kir2.1; format: cell-based; details: 100% = no change, <100% = inhibition
T7 construct: host or cells: HEK293 or CHO
Procedure: as §1, §2, §3, §4

Kv1.1 = target: T8, Kv1.1 (Homo sapiens, UniProt Q09470); test: cell-based; format: cell-based; details: 100% = no change, <100% = inhibition
T8 construct: host or cells: HEK293 or CHO
Procedure: as §1, §2, §3, §4

Kv1.2 = target: T9, Kv1.2 (Homo sapiens, UniProt P16389); test: cell-based; format: cell-based; details: 100% = no change, <100% = inhibition
T9 construct: host or cells: HEK293 or CHO
Procedure: as §1, §2, §3, §4

Kv1.3 = target: T10, Kv1.3 (Homo sapiens, UniProt P22001); test: cell-based; format: cell-based; details: 100% = no change, <100% = inhibition
T10 construct: host or cells: HEK293 or CHO
Procedure: as §1, §2, §3, §4

Nav1.7 = target: T11, Nav1.7 (Homo sapiens, UniProt Q15858); test: cell-based; format: cell-based; details: 100% = no change; for Activity of Nav1.7 with peptide, expressed as a percentage of the reference compound: peptide at 0.2 μM; for Activity of Nav1.7 with peptide (percentage of the reference compound): peptide at 20 μM
T11 construct: host or cells: HEK293 or CHO
Procedure: as §1
as §2, with “Peptides were screened in duplicate at final concentrations of 20 μM and 200 nM, as determined by amino acid analysis, and diluted into HEPES buffered physiological saline (HBPS).” left out
as §3, §4

NR2A = target: T12, NR2A (Homo sapiens, UniProt Q12879); test: Ion channel panel (IonWorks Barracuda): NR2A; format: cell-based; details: 100% = no change, <100% = inhibition
T12 construct: host or cells: HEK293 or CHO
Procedure: as §1, §2, §3, §4

NR2B = target: T13, NR2B (Homo sapiens, UniProt Q13224); test: Ion channel panel (IonWorks Barracuda): NR2B; format: cell-based; details: 100% = no change, <100% = inhibition
T13 construct: host or cells: HEK293 or CHO
Procedure: as §1, §2, §3, §4

TRPA1 = target: T14, TRPA1 (Homo sapiens, UniProt O75762); test: Ion channel panel (IonWorks Barracuda): TRPA1; format: cell-based; details: 100% = no change, <100% = inhibition
T14 construct: host or cells: HEK293 or CHO
Procedure: as §1, §2, §3, §4

TRPV1 = target: T15, TRPV1 (Homo sapiens, UniProt Q8NER1); test: Ion channel panel (IonWorks Barracuda): TRPV1; format: cell-based; details: 100% = no change, <100% = inhibition
T15 construct: host or cells: HEK293 or CHO
Procedure: as §1, §2, §3, §4

[1] = first of two Nav1.5 columns (probably TP1)
[2] = second of two Nav1.5 columns (probably TP2)
[3] = first of two Nav1.7 columns (probably TP1)
[4] = second of two Nav1.7 columns (probably TP2)

Nav1.5, sequence (Q14524 whole entry): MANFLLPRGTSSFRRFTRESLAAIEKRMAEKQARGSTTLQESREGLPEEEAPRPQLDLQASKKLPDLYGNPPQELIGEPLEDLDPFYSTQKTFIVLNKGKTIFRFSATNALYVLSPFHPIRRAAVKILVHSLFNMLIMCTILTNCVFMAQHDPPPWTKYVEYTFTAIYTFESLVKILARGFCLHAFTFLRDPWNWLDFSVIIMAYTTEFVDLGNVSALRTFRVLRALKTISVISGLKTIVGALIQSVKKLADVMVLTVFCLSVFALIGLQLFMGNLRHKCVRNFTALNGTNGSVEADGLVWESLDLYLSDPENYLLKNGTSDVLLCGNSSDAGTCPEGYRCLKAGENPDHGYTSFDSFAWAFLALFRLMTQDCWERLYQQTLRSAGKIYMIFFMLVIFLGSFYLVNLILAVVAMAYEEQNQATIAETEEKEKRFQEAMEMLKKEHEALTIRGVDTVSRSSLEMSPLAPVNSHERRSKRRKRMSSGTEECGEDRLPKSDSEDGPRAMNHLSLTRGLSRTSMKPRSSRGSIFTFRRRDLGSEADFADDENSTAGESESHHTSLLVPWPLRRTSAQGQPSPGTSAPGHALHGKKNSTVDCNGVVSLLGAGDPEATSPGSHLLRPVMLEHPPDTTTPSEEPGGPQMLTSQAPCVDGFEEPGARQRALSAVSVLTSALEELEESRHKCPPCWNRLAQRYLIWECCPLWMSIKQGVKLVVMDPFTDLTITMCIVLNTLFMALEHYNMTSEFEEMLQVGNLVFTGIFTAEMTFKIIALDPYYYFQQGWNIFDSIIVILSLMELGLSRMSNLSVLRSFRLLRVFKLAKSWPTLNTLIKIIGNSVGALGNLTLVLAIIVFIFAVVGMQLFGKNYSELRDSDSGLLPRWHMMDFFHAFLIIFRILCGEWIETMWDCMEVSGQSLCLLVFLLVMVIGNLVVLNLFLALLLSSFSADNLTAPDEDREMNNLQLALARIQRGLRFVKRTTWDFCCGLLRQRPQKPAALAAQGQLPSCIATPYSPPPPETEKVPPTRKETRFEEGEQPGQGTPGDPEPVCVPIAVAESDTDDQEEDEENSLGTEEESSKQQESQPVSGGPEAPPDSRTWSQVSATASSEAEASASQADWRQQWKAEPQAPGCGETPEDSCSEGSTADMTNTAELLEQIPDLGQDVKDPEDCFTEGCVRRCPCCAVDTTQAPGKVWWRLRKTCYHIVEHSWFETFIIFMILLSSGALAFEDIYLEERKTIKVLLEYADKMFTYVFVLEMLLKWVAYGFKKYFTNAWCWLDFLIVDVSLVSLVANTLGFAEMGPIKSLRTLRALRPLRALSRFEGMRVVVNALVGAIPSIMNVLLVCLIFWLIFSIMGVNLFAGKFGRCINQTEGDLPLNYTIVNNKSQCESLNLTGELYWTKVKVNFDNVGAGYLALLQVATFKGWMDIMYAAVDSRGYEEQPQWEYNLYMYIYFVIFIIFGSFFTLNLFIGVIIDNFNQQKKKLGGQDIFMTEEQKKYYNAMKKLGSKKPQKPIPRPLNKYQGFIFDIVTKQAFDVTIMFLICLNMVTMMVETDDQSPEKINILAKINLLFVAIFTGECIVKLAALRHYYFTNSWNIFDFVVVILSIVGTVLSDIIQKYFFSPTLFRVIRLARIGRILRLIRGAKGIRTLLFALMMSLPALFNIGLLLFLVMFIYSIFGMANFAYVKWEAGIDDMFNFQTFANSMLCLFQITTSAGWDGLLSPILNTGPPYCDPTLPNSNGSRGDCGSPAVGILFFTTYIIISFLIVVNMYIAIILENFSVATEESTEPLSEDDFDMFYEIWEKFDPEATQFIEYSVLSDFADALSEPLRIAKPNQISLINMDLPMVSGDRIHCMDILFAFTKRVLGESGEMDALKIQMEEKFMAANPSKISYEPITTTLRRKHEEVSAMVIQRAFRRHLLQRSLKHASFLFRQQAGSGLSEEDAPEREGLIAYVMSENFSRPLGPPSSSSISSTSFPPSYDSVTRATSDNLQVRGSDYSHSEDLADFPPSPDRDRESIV
T11 sequence (Q15858 whole entry): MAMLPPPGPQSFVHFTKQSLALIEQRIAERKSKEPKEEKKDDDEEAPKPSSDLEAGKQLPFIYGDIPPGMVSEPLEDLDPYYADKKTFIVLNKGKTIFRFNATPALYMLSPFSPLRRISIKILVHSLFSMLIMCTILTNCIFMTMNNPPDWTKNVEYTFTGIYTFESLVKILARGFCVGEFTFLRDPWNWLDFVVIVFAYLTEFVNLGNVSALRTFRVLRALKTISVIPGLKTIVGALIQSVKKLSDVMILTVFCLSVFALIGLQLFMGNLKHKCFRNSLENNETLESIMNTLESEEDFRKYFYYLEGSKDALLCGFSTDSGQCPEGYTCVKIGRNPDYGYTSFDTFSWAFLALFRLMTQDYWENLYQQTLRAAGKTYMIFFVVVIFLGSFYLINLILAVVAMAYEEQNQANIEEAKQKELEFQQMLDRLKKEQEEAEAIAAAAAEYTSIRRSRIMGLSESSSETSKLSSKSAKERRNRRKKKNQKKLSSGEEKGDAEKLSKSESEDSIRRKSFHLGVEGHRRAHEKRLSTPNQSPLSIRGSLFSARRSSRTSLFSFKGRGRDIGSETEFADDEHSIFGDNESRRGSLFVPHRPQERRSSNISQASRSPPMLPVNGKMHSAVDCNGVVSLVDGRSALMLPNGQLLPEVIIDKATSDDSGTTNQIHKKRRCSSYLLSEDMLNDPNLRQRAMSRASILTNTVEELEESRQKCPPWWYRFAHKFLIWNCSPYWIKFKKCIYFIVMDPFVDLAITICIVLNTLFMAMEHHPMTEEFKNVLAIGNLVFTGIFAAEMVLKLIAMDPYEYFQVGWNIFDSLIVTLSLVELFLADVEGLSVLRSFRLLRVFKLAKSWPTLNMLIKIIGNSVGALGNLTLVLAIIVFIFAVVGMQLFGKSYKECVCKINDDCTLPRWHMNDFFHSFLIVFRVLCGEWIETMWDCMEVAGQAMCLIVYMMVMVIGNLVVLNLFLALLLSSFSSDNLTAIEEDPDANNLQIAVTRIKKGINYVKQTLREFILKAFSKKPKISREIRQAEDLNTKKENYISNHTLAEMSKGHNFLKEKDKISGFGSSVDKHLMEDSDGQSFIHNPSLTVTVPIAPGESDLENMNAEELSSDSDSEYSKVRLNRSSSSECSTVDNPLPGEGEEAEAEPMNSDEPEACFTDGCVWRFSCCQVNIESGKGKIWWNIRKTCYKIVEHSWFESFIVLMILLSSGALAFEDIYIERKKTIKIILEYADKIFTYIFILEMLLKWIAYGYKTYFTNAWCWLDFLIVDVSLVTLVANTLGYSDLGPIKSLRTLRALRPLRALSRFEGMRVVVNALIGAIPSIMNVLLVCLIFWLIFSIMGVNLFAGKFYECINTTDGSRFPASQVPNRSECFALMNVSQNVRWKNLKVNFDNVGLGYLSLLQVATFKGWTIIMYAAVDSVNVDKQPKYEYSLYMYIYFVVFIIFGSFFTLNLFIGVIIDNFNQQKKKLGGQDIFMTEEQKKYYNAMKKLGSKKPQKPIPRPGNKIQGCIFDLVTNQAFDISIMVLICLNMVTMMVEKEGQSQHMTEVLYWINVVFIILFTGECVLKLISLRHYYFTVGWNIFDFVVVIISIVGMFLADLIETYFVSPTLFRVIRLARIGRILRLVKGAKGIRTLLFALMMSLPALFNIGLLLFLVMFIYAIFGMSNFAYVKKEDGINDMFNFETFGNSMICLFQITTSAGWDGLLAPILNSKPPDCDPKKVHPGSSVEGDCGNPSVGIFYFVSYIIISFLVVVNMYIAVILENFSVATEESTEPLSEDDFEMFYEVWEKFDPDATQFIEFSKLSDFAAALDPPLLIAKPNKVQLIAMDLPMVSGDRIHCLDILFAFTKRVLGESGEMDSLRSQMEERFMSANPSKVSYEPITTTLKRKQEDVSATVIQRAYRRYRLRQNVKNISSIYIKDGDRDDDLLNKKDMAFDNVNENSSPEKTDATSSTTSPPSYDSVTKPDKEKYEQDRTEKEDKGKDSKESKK
T9 sequence (P16389 whole entry): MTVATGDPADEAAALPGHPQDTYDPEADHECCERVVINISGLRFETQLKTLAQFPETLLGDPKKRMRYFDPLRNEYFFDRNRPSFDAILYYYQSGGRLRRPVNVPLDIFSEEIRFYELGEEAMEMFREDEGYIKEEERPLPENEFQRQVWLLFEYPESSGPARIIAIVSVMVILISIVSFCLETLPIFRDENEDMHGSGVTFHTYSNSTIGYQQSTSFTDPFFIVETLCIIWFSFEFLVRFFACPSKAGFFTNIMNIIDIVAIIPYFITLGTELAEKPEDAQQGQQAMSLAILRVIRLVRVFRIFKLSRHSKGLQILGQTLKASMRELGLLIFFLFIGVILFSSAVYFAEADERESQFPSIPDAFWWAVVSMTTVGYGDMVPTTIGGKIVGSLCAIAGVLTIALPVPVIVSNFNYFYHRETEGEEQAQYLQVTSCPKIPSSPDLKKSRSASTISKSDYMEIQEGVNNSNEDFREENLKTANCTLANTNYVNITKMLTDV
T8 sequence (Q09470 whole entry): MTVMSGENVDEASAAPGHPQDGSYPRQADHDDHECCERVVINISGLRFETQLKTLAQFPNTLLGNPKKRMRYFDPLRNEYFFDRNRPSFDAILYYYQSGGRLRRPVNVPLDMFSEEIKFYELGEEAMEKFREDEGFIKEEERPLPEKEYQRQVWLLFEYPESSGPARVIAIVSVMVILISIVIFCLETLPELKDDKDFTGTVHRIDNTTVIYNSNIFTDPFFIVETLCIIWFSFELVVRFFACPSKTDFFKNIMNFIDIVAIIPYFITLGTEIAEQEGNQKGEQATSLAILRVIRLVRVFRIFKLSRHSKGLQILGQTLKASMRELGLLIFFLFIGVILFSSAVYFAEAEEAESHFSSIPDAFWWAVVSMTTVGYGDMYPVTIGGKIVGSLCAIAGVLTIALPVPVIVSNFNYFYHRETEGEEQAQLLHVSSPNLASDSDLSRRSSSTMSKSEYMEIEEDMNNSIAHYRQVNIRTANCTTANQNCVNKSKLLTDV

2 (GSEVIRCSGSKQCYGPCKQQTGCTNSKCMNKVCKCYGCG) [compound 2]
Activity of 5HT3a with peptide (percentage of the reference compound) (5HT3a): 88%
Activity of 5HT3a with peptide, expressed as a percentage of the reference compound (5HT3a): 92%
Activity of a3b4 with peptide, expressed as a percentage of the reference compound (α3β4; peptide at 0.2 μM): 85%
Activity of a3b4 with peptide (percentage of the reference compound) (α3β4; peptide at 20 μM): 88%
Activity of a4b2 with peptide, expressed as a percentage of the reference compound (α4β2; peptide at 0.2 μM): 95%
Activity of a4b2 with peptide (percentage of the reference compound) (α4β2; peptide at 20 μM): 87%
Activity of Cav2.1 with peptide, expressed as a percentage of the reference compound (Cav2.1; peptide at 0.2 μM): 103%
Activity of Cav2.1 with peptide (percentage of the reference compound) (Cav2.1; peptide at 20 μM): 108%
Activity of Cav2.2 with peptide, expressed as a percentage of the reference compound (Cav2.2; peptide at 0.2 μM): 104%
Activity of Cav2.2 with peptide (percentage of the reference compound) (Cav2.2; peptide at 20 μM): 104%
Activity of Kv2.1 with peptide, expressed as a percentage of the reference compound (Kv2.1; peptide at 0.2 μM): 80%
Activity of Kv2.1 with peptide (percentage of the reference compound) (Kv2.1; peptide at 20 μM): 87%
Activity of GABA with peptide, expressed as a percentage of the reference compound (GABA; peptide at 0.2 μM): 104%
Activity of GABA with peptide (percentage of the reference compound) (GABA; peptide at 20 μM): 97%
Activity of Nav1.5 with peptide, expressed as a percentage of the reference compound (Nav1.5; [1]): 95%
Activity of Nav1.5 with peptide, expressed as a percentage of the reference compound (Nav1.5; [2]): 93%
Activity of Nav1.5 with peptide (percentage of the reference compound) (Nav1.5; [1]): 102%
Activity of Nav1.5 with peptide (percentage of the reference compound) (Nav1.5; [2]): 101%
Activity of hERG with peptide, expressed as a percentage of the reference compound (hERG; peptide at 0.2 μM): 97%
Activity of hERG with peptide (percentage of the reference compound) (hERG; peptide at 20 μM): 76%
Activity of Kir2.1 with peptide, expressed as a percentage of the reference compound (Kir2.1; peptide at 0.2 μM): 101%
Activity of Kir2.1 with peptide (percentage of the reference compound) (Kir2.1; peptide at 20 μM): 89%
Activity of Kv1.1 with peptide, expressed as a percentage of the reference compound (Kv1.1; peptide at 0.2 μM): 114%
Activity of Kv1.1 with peptide (percentage of the reference compound) (Kv1.1; peptide at 20 μM): 68%
Activity of Kv1.2 with peptide, expressed as a percentage of the reference compound (Kv1.2; peptide at 0.2 μM): 34%
Activity of Kv1.2 with peptide (percentage of the reference compound) (Kv1.2; peptide at 20 μM): 39%
Activity of Kv1.3 with peptide, expressed as a percentage of the reference compound (Kv1.3; peptide at 0.2 μM): 8%
Activity of Kv1.3 with peptide (percentage of the reference compound) (Kv1.3; peptide at 20 μM): 1%
Activity of Nav1.7 with peptide, expressed as a percentage of the reference compound (Nav1.7; [3]): 89%
Activity of Nav1.7 with peptide, expressed as a percentage of the reference compound (Nav1.7; [4]): 74%
Activity of Nav1.7 with peptide (percentage of the reference compound) (Nav1.7; [3]): 61%
Activity of Nav1.7 with peptide (percentage of the reference compound) (Nav1.7; [4]): 91%
Activity of NR2A with peptide, expressed as a percentage of the reference compound (NR2A; peptide at 0.2 μM): 102%
Activity of NR2A with peptide (percentage of the reference compound) (NR2A; peptide at 20 μM): 95%
Activity of NR2B with peptide, expressed as a percentage of the reference compound (NR2B; peptide at 0.2 μM): 118%
Activity of NR2B with peptide (percentage of the reference compound) (NR2B; peptide at 20 μM): 72%
Activity of TRPA1 with peptide, expressed as a percentage of the reference compound (TRPA1; peptide at 0.2 μM): 106%
Activity of TRPA1 with peptide (percentage of the reference compound) (TRPA1; peptide at 20 μM): 92%
Activity of TRPV1 with peptide, expressed as a percentage of the reference compound (TRPV1; peptide at 0.2 μM): 95%
Activity of TRPV1 with peptide (percentage of the reference compound) (TRPV1; peptide at 20 μM): 81%
